Here are results for one molecule from patent publication US20250333515A1.

The target in assay [1] is biotinylated recombinant human CLL-1 extracellular domain protein, isoform with glutamine at amino acid position 244 (human) (UniProt Q5QGZ9). Nature of the assay: BLItz, 1:1 model (Q244 per FIG. 12B).
For assay [2] the target is unchanged. Nature of the assay: Blitz (CLL-1-Q244).
For assay [3], the target named is biotinylated recombinant human CLL-1 extracellular domain protein, isoform with lysine at amino acid position 244 (human) (UniProt Q5QGZ9). Nature of the assay: Exp 1 (= Octet, CLL-1-K244 of FIG. 12B).
In assay [4] the target is biotinylated recombinant human CLL-1 extracellular domain protein, isoform with glutamine at amino acid position 244 (human) (UniProt Q5QGZ9). Nature of the assay: Exp 2 (= Blitz, CLL-1-Q244 of FIG. 12B).
Assay [5] deals with biotinylated recombinant human CLL-1 extracellular domain protein, isoform with lysine at amino acid position 244 (human) (UniProt Q5QGZ9). Briefly: Octet (CLL-1-K244); variant column says Only Q.

Sequence of biotinylated recombinant human CLL-1 extracellular domain protein, isoform with glutamine at amino acid position 244 (human) (Q5QGZ9 65-265): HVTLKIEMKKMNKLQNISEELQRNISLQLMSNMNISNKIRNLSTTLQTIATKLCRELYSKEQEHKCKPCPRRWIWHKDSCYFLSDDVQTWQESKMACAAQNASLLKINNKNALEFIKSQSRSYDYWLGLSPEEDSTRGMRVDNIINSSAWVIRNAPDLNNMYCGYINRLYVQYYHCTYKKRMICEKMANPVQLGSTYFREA
Sequence of biotinylated recombinant human CLL-1 extracellular domain protein, isoform with lysine at amino acid position 244 (human) (Q5QGZ9 65-265): as above

B1: Anti-CLL-1 Binder Clone 40 (scFv, not shown: small tags and cut ends)
scFv: QSVLTQPPSVSAAPGQKVTISCSGSSSNIGNNYVSWYQQLPGTAPKLLIYDNNKRPSGIPDRFSGSESGTSATLGITGLQTGDEADYYCGTWDSSLSAWVFGGGTQLIILGGGGSGGGGSGGGGSQVQLQQSGPGLVKPSQTLSLTCAISGDSVSSNSAAWNWIRQSPSRGLEWLGRTHYRSKWYNDYAVSVKSRITISADTSKNQFSLQLNSVTPEDTAVYYCARDRYTVRPDAFDIWGQGTTVTVSS
Regarding B1, the Kd in assay [1] stood at 14 nM; in assay [2] it was 14 nM; in assay [3], 8.35 nM; in assay [4], 14 nM; in assay [5], 8.35 nM. Further, in assay [1], the off-rate (koff) stood at 0.00081 s⁻¹. In addition, the kon in assay [1] was 58000 M⁻¹ s⁻¹.
